This experiment concerns the target HLA-A*02:01 (Homo sapiens, UniProt P04439, D140Y/D185E/D98H/E176V/E277Q/G131W/G231S/I119V/I121R/I166T/I218V/L300P/L318F/N151K/N90K/P208A/P217A/Q86G/Q94H/R138H/R169H/T345S). The experiment in a line: MHC binding assay (UV-ligand exchange, ELISA of stabilized MHC complexes). Particulars: MHC class I binding score; binding to HLA-A*02:01 ranged by peptide exchange yield (UV-ligand exchange, ELISA). The method in brief:
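Binding scored as exchange yield, detected via β2m of stabilized complexes in an HRP/TMB ELISA read at 450 nm after streptavidin capture of 100-fold diluted monomers for 1 h at 37 °C. Complexes came from UV irradiation cleaving a photolabile peptide, exchanged for the candidate.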
(In general: An ELISA detects its analyte on a solid surface through an enzyme-linked reagent.)
With “286 (YLFPGIPEL; listed as Homo sapiens) [compound 286]”, the Peptide exchange entry is “″+++″ (≥50% = +++)”.

Take “253 (GLDAATATV; listed as Homo sapiens) [compound 253]”: the Peptide exchange result is listed as “″++″ (≥20% = ++)”.

As to “46 (ILTEENIHL; listed as Homo sapiens) [compound 46]”, the Peptide exchange entry is given as “″+++″ (≥50% = +++)”.

In the case of “388 (SLTIDGIRYV; listed as Homo sapiens) [compound 388]”, the Peptide exchange result was “″+++″ (≥50% = +++)”.

As for “328 (ALNDQVFEI; listed as Homo sapiens) [compound 328]”, the Peptide exchange entry is on record as “″+++″ (≥50% = +++)”.

With “237 (ALLEASGTLLL; listed as Homo sapiens) [compound 237]”, the Peptide exchange result was “″++++″ (≥75% = ++++)”.

On to “28 (QLLDETSAITL; listed as Homo sapiens) [compound 28]”, for which the Peptide exchange entry is given as “″+++″ (≥50% = +++)”.

As to “366 (RLLDMGETDLML; listed as Homo sapiens) [compound 366]”, the Peptide exchange entry is “″+++″ (≥50% = +++)”.

Consider “609 (ALWKQLLEL; listed as Homo sapiens) [compound 609]”, for which the Peptide exchange result is listed as “″+++″ (≥50% = +++)”.

Turning to “157 (SLNDEVPEV; listed as Homo sapiens) [compound 157]”, the Peptide exchange result was “″++″ (≥20% = ++)”.

On to “135 (ALSEVDFQL; listed as Homo sapiens) [compound 135]”, for which the Peptide exchange result is “″+++″ (≥50% = +++)”.

Regarding “265 (LLFGGTKTV; listed as Homo sapiens) [compound 265]”, the Peptide exchange entry is given as “″++″ (≥20% = ++)”.

Regarding “232 (ALLEAQDVELYL; listed as Homo sapiens) [compound 232]”, the Peptide exchange entry was “″++″ (≥20% = ++)”.

For “98 (LIIDQADIYL; listed as Homo sapiens) [compound 98]”, the Peptide exchange entry is recorded as “″+++″ (≥50% = +++)”.

Turning to “41 (SLMPHIPGL; listed as Homo sapiens) [compound 41]”, the Peptide exchange result is “″+++″ (≥50% = +++)”.

“469 (YLASDEITTV; listed as Homo sapiens) [compound 469]”: the Peptide exchange entry was “″+++″ (≥50% = +++)”.

On to “346 (LLDSKVPSV; listed as Homo sapiens) [compound 346]”, for which the Peptide exchange entry is listed as “″+++″ (≥50% = +++)”.

In the case of “181 (LLWAGTAFQV; listed as Homo sapiens) [compound 181]”, the Peptide exchange entry was “″+++″ (≥50% = +++)”.

For the substance “172 (VLYSYTIITV; listed as Homo sapiens) [compound 172]”, the Peptide exchange result was “″++″ (≥20% = ++)”.

Take “236 (GLLEAKVSL; listed as Homo sapiens) [compound 236]”: the Peptide exchange entry is reported as “″+++″ (≥50% = +++)”.

Take “340 (ALLSMTFPL; listed as Homo sapiens) [compound 340]”: the Peptide exchange entry is recorded as “″++++″ (≥75% = ++++)”.

As to “68 (SLMELPRGLFL; listed as Homo sapiens) [compound 68]”, the Peptide exchange result is “″++++″ (≥75% = ++++)”.

Regarding “530 (VMYADIGGMDI; listed as Homo sapiens) [compound 530]”, the Peptide exchange entry was “″+++″ (≥50% = +++)”.

Turning to “88 (FLLVGDLMAV; listed as Homo sapiens) [compound 88]”, the Peptide exchange result is given as “″+++″ (≥50% = +++)”.

With “106 (LLYDAVHIVSV; listed as Homo sapiens) [compound 106]”, the Peptide exchange entry is “″+++″ (≥50% = +++)”.

“77 (ILVEADGAWVV; listed as Homo sapiens) [compound 77]”: the Peptide exchange entry is on record as “″++++″ (≥75% = ++++)”.

For “210 (LLLNAVLTV; listed as Homo sapiens) [compound 210]”, the Peptide exchange result is reported as “″++″ (≥20% = ++)”.

For “9 (GAAKDLPGV; listed as Homo sapiens) [compound 9]”, the Peptide exchange result is “″++″ (≥20% = ++)”.

“522 (TLWYRSPEV; listed as Homo sapiens) [compound 522]”: the Peptide exchange entry was “″++″ (≥20% = ++)”.

For the substance “361 (ALYELEGTTV; listed as Homo sapiens) [compound 361]”, the Peptide exchange result was “″+++″ (≥50% = +++)”.

On to “590 (SLIEKLWQT; listed as Homo sapiens) [compound 590]”, for which the Peptide exchange entry is recorded as “″++″ (≥20% = ++)”.

Regarding “622 (RLLGEEVVRVLQA; listed as Homo sapiens) [compound 622]”, the Peptide exchange entry is listed as “″+++″ (≥50% = +++)”.

With “32 (KLDDLTQDLTV; listed as Homo sapiens) [compound 32]”, the Peptide exchange result is on record as “″++″ (≥20% = ++)”.

As for “14 (AAYGGLNEKSFV; listed as Homo sapiens) [compound 14]”, the Peptide exchange entry is “″+++″ (≥50% = +++)”.

In the case of “584 (ALAEVAAMENV; listed as Homo sapiens) [compound 584]”, the Peptide exchange result is recorded as “″+++″ (≥50% = +++)”.

Turning to “391 (YVYPQRLNFV; listed as Homo sapiens) [compound 391]”, the Peptide exchange result was “″+++″ (≥50% = +++)”.

As for “155 (RVANLHFPSV; listed as Homo sapiens) [compound 155]”, the Peptide exchange entry was “″+++″ (≥50% = +++)”.

Turning to “216 (NLWEDPYYL; listed as Homo sapiens) [compound 216]”, the Peptide exchange entry was “″+++″ (≥50% = +++)”.

“427 (ALLPLSPYL; listed as Homo sapiens) [compound 427]”: the Peptide exchange entry is recorded as “″+++″ (≥50% = +++)”.

On to “78 (SLFSSLEPQIQPV; listed as Homo sapiens) [compound 78]”, for which the Peptide exchange entry was “″+++″ (≥50% = +++)”.

In the case of “71 (GILARIASV; listed as Homo sapiens) [compound 71]”, the Peptide exchange entry is listed as “″+++″ (≥50% = +++)”.

In the case of “619 (ALQDRVPLA; listed as Homo sapiens) [compound 619]”, the Peptide exchange result is given as “″+++″ (≥50% = +++)”.

As for “555 (YVLEGLKSV; listed as Homo sapiens) [compound 555]”, the Peptide exchange result is on record as “″+++″ (≥50% = +++)”.

As for “7 (SLVGLLLYL; listed as Homo sapiens) [compound 7]”, the Peptide exchange entry is listed as “″++++″ (≥75% = ++++)”.

Consider “188 (GLFPVTPEAV; listed as Homo sapiens) [compound 188]”, for which the Peptide exchange entry is reported as “″+++″ (≥50% = +++)”.

As to “217 (ALIHPVSTV; listed as Homo sapiens) [compound 217]”, the Peptide exchange entry is listed as “″++″ (≥20% = ++)”.

Consider “161 (ALLEGVNTV; listed as Homo sapiens) [compound 161]”, for which the Peptide exchange result is listed as “″+++″ (≥50% = +++)”.

Regarding “147 (SLLEAVSFL; listed as Homo sapiens) [compound 147]”, the Peptide exchange entry was “″+++″ (≥50% = +++)”.

For the substance “307 (ALPVSLPQI; listed as Homo sapiens) [compound 307]”, the Peptide exchange entry is listed as “″+++″ (≥50% = +++)”.

Take “99 (ALVSKGLATV; listed as Homo sapiens) [compound 99]”: the Peptide exchange result is listed as “″++″ (≥20% = ++)”.

Regarding “621 (VLMDRLPSLL; listed as Homo sapiens) [compound 621]”, the Peptide exchange entry is given as “″++++″ (≥75% = ++++)”.

As for “318 (GLINTGVLSV; listed as Homo sapiens) [compound 318]”, the Peptide exchange result is on record as “″++″ (≥20% = ++)”.

“57 (TLAELQPPVQL; listed as Homo sapiens) [compound 57]”: the Peptide exchange result is “″+++″ (≥50% = +++)”.

“90 (TLLQIIETV; listed as Homo sapiens) [compound 90]”: the Peptide exchange result is “″+++″ (≥50% = +++)”.

Regarding “436 (HLAEVSAEV; listed as Homo sapiens) [compound 436]”, the Peptide exchange entry is “″+++″ (≥50% = +++)”.

On to “507 (KLIDDQDISISL; listed as Homo sapiens) [compound 507]”, for which the Peptide exchange result is “″+++″ (≥50% = +++)”.

For the substance “351 (SLIPNLRNV; listed as Homo sapiens) [compound 351]”, the Peptide exchange result is given as “″+++″ (≥50% = +++)”.

For the substance “15 (VLLTFKIFL; listed as Homo sapiens) [compound 15]”, the Peptide exchange result was “″++″ (≥20% = ++)”.

Turning to “62 (VLLDVSAGQLLM; listed as Homo sapiens) [compound 62]”, the Peptide exchange result is given as “″++++″ (≥75% = ++++)”.

“382 (ALQNYIKEA; listed as Homo sapiens) [compound 382]”: the Peptide exchange result is recorded as “″++″ (≥20% = ++)”.

In the case of “488 (FLAEDPKVTL; listed as Homo sapiens) [compound 488]”, the Peptide exchange result is listed as “″+++″ (≥50% = +++)”.

As to “595 (VLLSIYPRV; listed as Homo sapiens) [compound 595]”, the Peptide exchange entry is reported as “″+++″ (≥50% = +++)”.

As to “44 (ILDPISSGFLL; listed as Homo sapiens) [compound 44]”, the Peptide exchange result is given as “″++″ (≥20% = ++)”.

Regarding “559 (VTVPPGPSL; listed as Homo sapiens) [compound 559]”, the Peptide exchange entry is listed as “″++″ (≥20% = ++)”.

In the case of “546 (VMIAGKVAVV; listed as Homo sapiens) [compound 546]”, the Peptide exchange result was “″+++″ (≥50% = +++)”.

For the substance “125 (VQIHQVAQV; listed as Homo sapiens) [compound 125]”, the Peptide exchange result is given as “″+++″ (≥50% = +++)”.

On to “401 (ILLDDTGLAYI; listed as Homo sapiens) [compound 401]”, for which the Peptide exchange entry is recorded as “″+++″ (≥50% = +++)”.

As to “229 (RLPGPLGTV; listed as Homo sapiens) [compound 229]”, the Peptide exchange result is listed as “″++″ (≥20% = ++)”.

Consider “513 (SLWPSPEQL; listed as Homo sapiens) [compound 513]”, for which the Peptide exchange result is reported as “″++″ (≥20% = ++)”.

Take “395 (ALALGGIAVV; listed as Homo sapiens) [compound 395]”: the Peptide exchange result was “″++++″ (≥75% = ++++)”.
